Measured values as given in paper PMC4407741.

Biological target: soluble human neonatal Fc receptor (shFcRn; FcRn heavy chain ectodomain / beta2-microglobulin heterodimer) (UniProt P55899+P61769)
Assay: SPR (BIAcore 3000)
Details: 25°C, 150 mM NaCl, HBS-P: 10 mM HEPES at pH 6.0 and pH 7.5 (same buffer at both pH)

Substance	koff (pH 6.0) [s⁻¹]	koff (pH 7.4) [s⁻¹]	Kd (pH 6.0) [nM]	kon (pH 6.0) [M⁻¹ s⁻¹]	Kd (pH 7.5) [nM]	koff (pH 7.5) [s⁻¹]	kon (pH 7.5) [M⁻¹ s⁻¹]
DX-2500 (germlined parental clone M90-F11), fully human anti-FcRn IgG1 germlined relative to M90-F11 (changes not printed)	0.0177	0.0752	–	–	–	–	–
DX-2504 (clone M161-B04), fully human anti-FcRn IgG1 Affinity-matured heavy-chain CDR variant of DX-2500/M90-F11 (substitutions not printed)	0.00035	–	1.5	240000	1.9	0.00028	150000
DX-2507, fully human anti-FcRn IgG1 (variant of DX-2504) relative to DX-2504: LC-CDR3 Cys->Ala (position number not printed); C-terminal Lys deleted	0.00024	–	1.8	130000	2	0.00024	100000
